Reference: publication PMC1888729, “Control of Pre-mRNA Splicing by the General Splicing Factors PUF60 and U2AF^65” (PLoS ONE, 2007)

B1: PUF60 (endogenous, heparin fraction of HeLa nuclear extract) (natural protein, human (endogenous in HeLa), UniProt Q9UHX1 1-559, looked up)
chain: MATATIALQVNGQQGGGSEPAAAAAVVAAGDKWKPPQGTDSIKMENGQSTAAKLGLPPLTPEQQEALQKAKKYAMEQSIKSVLVKQTIAHQQQQLTNLQMAAVTMGFGDPLSPLQSMAAQRQRALAIMCRVYVGSIYYELGEDTIRQAFAPFGPIKSIDMSWDSVTMKHKGFAFVEYEVPEAAQLALEQMNSVMLGGRNIKVGRPSNIGQAQPIIDQLAEEARAFNRIYVASVHQDLSDDDIKSVFEAFGKIKSCTLARDPTTGKHKGYGFIEYEKAQSSQDAVSSMNLFDLGGQYLRVGKAVTPPMPLLTPATPGGLPPAAAVAAAAATAKITAQEAVAGAAVLGTLGTPGLVSPALTLAQPLGTLPQAVMAAQAPGVITGVTPARPPIPVTIPSVGVVNPILASPPTLGLLEPKKEKEEEELFPESERPEMLSEQEHMSISGSSARHMVMQKLLRKQESTVMVLRNMVDPKDIDDDLEGEVTEECGKFGAVNRVIIYQEKQGEEEDAEIIVKIFVEFSIASETHKAIQALNGRWFAGRKVVAEVYDQERFDNSDLSA
notes: PUF60 of HeLa nuclear extract; Seen as a monomer and as an SDS-resistant dimer; also called FIR; RoBP1; source: endogenous, HeLa nuclear extract, fractionated (20-40% ammonium sulfate, CsCl gradient, Poros heparin column)
B2: His-tagged PUF60 (PUF60S, HEK-293E) (natural protein, human, UniProt Q9UHX1-2 1-542, looked up)
chain: MATATIALQVNGQQGGGSEPAAAAAVVAAGDKWKPPQGTDSIKMENGQSTAAKLGLPPLTPEQQEALQKAKKYAMEQSIKSVLVKQTIAHQQQQLTNLQMAAQRQRALAIMCRVYVGSIYYELGEDTIRQAFAPFGPIKSIDMSWDSVTMKHKGFAFVEYEVPEAAQLALEQMNSVMLGGRNIKVGRPSNIGQAQPIIDQLAEEARAFNRIYVASVHQDLSDDDIKSVFEAFGKIKSCTLARDPTTGKHKGYGFIEYEKAQSSQDAVSSMNLFDLGGQYLRVGKAVTPPMPLLTPATPGGLPPAAAVAAAAATAKITAQEAVAGAAVLGTLGTPGLVSPALTLAQPLGTLPQAVMAAQAPGVITGVTPARPPIPVTIPSVGVVNPILASPPTLGLLEPKKEKEEEELFPESERPEMLSEQEHMSISGSSARHMVMQKLLRKQESTVMVLRNMVDPKDIDDDLEGEVTEECGKFGAVNRVIIYQEKQGEEEDAEIIVKIFVEFSIASETHKAIQALNGRWFAGRKVVAEVYDQERFDNSDLSA
notes: PUF60S, the isoform of human PUF60 that lacks alternative exon 5; amplified from pGAD-GH-RoBPI-47,3 with the primers PUF60Hisstart and PUFresmutD; About 60% of the protein ran as an SDS-resistant dimer; also called recombinant PUF60; PUFS; source: HEK-293E, transiently transfected with pTT3-HisPUFS, purified (Ni-NTA agarose)

Experiments:
[1] = molecular target: the molecule itself; test: SDS-PAGE and western blot; heparin fraction of HeLa nuclear extract, blot probed for PUF60
[2] = molecular target: the molecule itself; test: SDS-PAGE and western blot; His-tagged PUF60 (~3.6 pmol) purified from HEK-293E cells, blot probed for PUF60

Row | Protein | stoichiometry N [1] | stoichiometry N [2]
1 | B1 | 2 | –
2 | B2 | – | 2
